Assay results from patent publication US20170121390A1.

Molecular target: HCV E1-E2 protein complex of hepatitis C virus isolate H77 (genotype 1a), expressed from plasmid pcDNA3.1-E1E2 (hepatitis C virus isolate H77 (genotype 1a)) (UniProt P27958)
Test: cell-based or functional assay

“fully human monoclonal antibody Adalimumab (brand name Humira)” was tested, and the Degree of inhibition (times) was 1.09 times and the Infection effectiveness (percentage of fluorescent cells) was 58.1%.
